Data reported in patent US20260250410A1, “ANTIBODY AND USE THEREOF” (SICHUAN HUIYU PHARMACEUTICAL CO., LTD., priority 2022, published 2026).

Experiments:
PC3 cells = test: Endocytosis capacity of murine monoclonal antibody (flow cytometry internalization); assay type: cell-based, human; settings: antibody 1.5 μg/mL; for Internalization PC3 (%) 2 h: PC3, 2 h at 37° C.
Procedure: (§1) The endocytosis capacity of the antibody was detected for 0.5 to 2 hours. MDA-MB-231 and PC3 cells were subjected to digestion with 5 mM EDTA, and plated at 4×10^4 cells/well after cell counting. After adding an Fc blocker (Human TruStain FcX™, Biolegend, 422302) and blocking at room temperature for 10 mins, a test antibody (1.5 μg/mL) was added, and the mixture was incubated at 4° C. for 30 mins, centrifuged, and washed twice with PBS+2% FBS, then the cells were divided into four equal portions (labeled as 0 h, 0.5 h, 1 h, 2 h), cells labeled as 0.5 h, 1 h, 2 h time points were added to a cell culture medium at 200 µL/well, and cultured at 37° C. for 0.5 h, 1 h, 2 h, respectively. Cells at 0 h point were centrifuged to remove supernatant, a secondary antibody (PE anti-human IgG Fc Antibody, Biolegend, 410708) was added, and the mixture was incubated at 4° C. for 30 mins, centrifuged, and washed twice with PBS+2% FBS, and detection was performed using a flow cytometer. After incubation of cells labeled as 0.5 h, 1 h, and 2 h points at 37° C. was completed, a secondary antibody was added (in the same steps as those at 0 h point), Geo-MFI of the signal under the same voltage was collected as detection signal at 0 h, and antibody internalization rate was calculated according to the following equation: Internalization (%)=(Geo-MFI (0 h)-Geo-MFI (0.5, 1, 2 h))/Geo-MFI (0 h)×100%.

MDA-MB-231 cells [1] = test: as above; assay type: cell-based, human; settings: antibody 1.5 μg/mL; for Internalization MDA-MB-231 (%) 2 h: MDA-MB-231, 2 h at 37° C.
Procedure: as §1

MDA-MB-231 cells [2] = test: Endocytosis capacity of humanized antibodies; assay type: cell-based, human; settings: antibody 1.5 μg/mL; for 1 h endocytosis (%): MDA-MB-231, 1 h at 37° C.; for 2 h endocytosis (%): MDA-MB-231, 2 h at 37° C.
Procedure: The endocytosis capacity of the anti-CDCP1 humanized antibody was detected with reference to example 5. MDA-MB-231 cells were subjected to digestion with 5 mM EDTA, and plated at 3×10^4 cells/well after cell counting. After adding an Fc blocker and blocking at room temperature for 10 mins, a test antibody (1.5 μg/mL) was added, and the mixture was incubated at 4° C. for 30 mins, centrifuged, and washed twice with PBS+2% FBS, then the cells were divided into three equal portions (labeled as 0 h, 1 h, 2 h), cells labeled as 1 h and 2 h time points were added to 200 μL of cell culture medium, and cultured at 37° C. for 1 h and 2 h, respectively. Cells at 0 h point were centrifuged, a secondary antibody (PE anti-human IgG Fc Antibody, Biolegend, 410708) was added, and the mixture was incubated at 4° C. for 30 mins, centrifuged, and washed twice with PBS+2% FBS, and detection was performed using a flow cytometer. After incubation of cells labeled as 1 h and 2 h points at 37° C. was completed, a secondary antibody was added (in the same steps as those at 0 h point), Geo-MFI of the signal under the same voltage was collected as detection signal at 0 h, and antibody internalization rate was calculated according to the following equation: Internalization (%)=(Geo-MFI (0 h)-Geo-MFI (1, 2 h))/Geo-MFI (0 h)×100%.

HuCDCP1-C = target: T1, HuCDCP1-C (Homo sapiens, UniProt Q9H5V8); test: Caterra affinity of humanized anti-CDCP1 antibodies; assay type: binding; settings: HuCDCP1-C 2 μg/ml immobilized
T1 construct: made in house; host or cells: HEK-293T
T1 sequence (Q9H5V8 30-667): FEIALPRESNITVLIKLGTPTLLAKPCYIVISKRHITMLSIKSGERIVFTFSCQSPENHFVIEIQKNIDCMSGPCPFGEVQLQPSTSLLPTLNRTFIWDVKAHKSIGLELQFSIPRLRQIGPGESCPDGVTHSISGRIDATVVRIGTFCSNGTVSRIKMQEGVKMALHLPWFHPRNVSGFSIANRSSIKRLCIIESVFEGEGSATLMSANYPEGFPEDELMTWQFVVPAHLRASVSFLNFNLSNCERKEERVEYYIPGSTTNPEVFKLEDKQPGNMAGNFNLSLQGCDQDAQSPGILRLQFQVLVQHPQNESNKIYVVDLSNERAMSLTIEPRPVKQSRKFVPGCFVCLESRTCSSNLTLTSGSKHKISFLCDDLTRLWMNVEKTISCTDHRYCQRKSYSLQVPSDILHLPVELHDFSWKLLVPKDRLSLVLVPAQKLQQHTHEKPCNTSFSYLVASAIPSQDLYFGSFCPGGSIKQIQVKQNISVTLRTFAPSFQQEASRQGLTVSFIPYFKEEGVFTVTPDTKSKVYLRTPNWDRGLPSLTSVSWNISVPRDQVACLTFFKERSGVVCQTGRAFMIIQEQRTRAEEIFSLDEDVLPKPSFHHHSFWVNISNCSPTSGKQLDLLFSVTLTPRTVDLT
Procedure: The humanized anti-CDCP1 antibodies obtained from Example 11 were subjected to gene cloning, constructed into pTT5 expression vector for a small amount of expression in CHO cells (Expi-CHOS: Gibco A29127), and purified with an Fc affinity column (AT Protein A Diamond Plus. No. AA402312). Antibody purity was analyzed by HPLC and determined by Nanodrop. High-throughput affinity assay was carried out for a small amount of antibodies by Caterra.

B1: 1CP-066: anti-CDCP1 murine monoclonal antibody (hybridoma); VH SEQ ID NO: 268, VL SEQ ID NO: 318 (antibody, V domains shown)
VH: EVTLKESGPELKKPGETVKISCKASGYAFTKYGMNWVKQAPGKDLKFMGWINTYTGEATYADDFKGRFDFSLEASASTAFLRINNLKNEDTATYFCSRGDDYGTGGYVLFYWGQGTTVTVSS
VL: DIVMTQAAASLSVTVGETVTITCRASENIYNNLAWYQQQQGKSPQLLVYAATNLADGVPSRFSGSGSGTHYSLKINSLQSEDFGFYYCQHFWGTPPTFGGGTKLEIK
modifications: 1CP-066 heavy chain variable region; 1CP-066 light chain variable region
PC3 cells
  Internalization PC3 (%) 2 h: 33.21%
MDA-MB-231 cells [1]
  Internalization MDA-MB-231 (%) 2 h: 55.57%

B2: 1CP-117: humanized anti-CDCP1 antibody produced by 8E5; VH SEQ ID NO: 348, VL SEQ ID NO: 358 (antibody, V domains shown)
VH: QVQLVQSGSELKKPGASVKVSCKASGYTLTDFSMHWVRQAPGQGLEWMGWINTETGAPTYADDFKGRFVLSLDTSVSTAYLQISSLKAEDTAVYYCSRGRDYDPHFDYWGQGTLVTVSS
VL: EIVLTQSPATLSLSPGERATLSCRASQSISDFLHWYQQKPGQSPRLLIKYASQSISGIPARFSGSGSGSDFTLTISSVEPEDFAVYYCQSAHSFPYTFGQGTKLEIK
modifications: humanized antibody 8E5 heavy chain variable region 01; humanized antibody 8E5 light chain variable region 02
MDA-MB-231 cells [2]
  1 h endocytosis (%): 45.68%
  2 h endocytosis (%): 68.37%
HuCDCP1-C
  ka: 152000 M⁻¹ s⁻¹
  kd: 3.93e-05 s⁻¹

B3: 1CP-121: humanized anti-CDCP1 antibody produced by 8E5; VH SEQ ID NO: 348, VL SEQ ID NO: 359 (antibody, V domains shown)
VH: QVQLVQSGSELKKPGASVKVSCKASGYTLTDFSMHWVRQAPGQGLEWMGWINTETGAPTYADDFKGRFVLSLDTSVSTAYLQISSLKAEDTAVYYCSRGRDYDPHFDYWGQGTLVTVSS
VL: EIVLTQSPATLSLSPGERATLSCRASQSISDFLHWYQQKSGQSPRLLIKYASQSISGIPARFSGSGSGSDFTLTISSVEPEDFAVYYCQSAHSFPYTFGQGTKLEIK
modifications: humanized antibody 8E5 heavy chain variable region 01; humanized antibody 8E5 light chain variable region 03
MDA-MB-231 cells [2]
  1 h endocytosis (%): 51.49%
  2 h endocytosis (%): 72.98%
HuCDCP1-C
  ka: 148000 M⁻¹ s⁻¹
  kd: 1e-05 s⁻¹

B4: 12E6: anti-CDCP1 murine monoclonal antibody (hybridoma); VH SEQ ID NO: 255, VL SEQ ID NO: 305 (antibody, V domains shown)
VH: EVQLKESGPGILQPSQTLSLTCSFSGFSLSTSGMGVGWIRQPSGKGLEWLAHIWWDDVKLYNPALKSRLTISKETSNNQVFLKIASVDAADTATYYCARIDHGYGSNYWDFDVWGAGTTVTVSS
VL: DIVMTQAAPSVPVTPGGSVSISCRSTKSLLHSDGKTYLYWFLQRPGQSPQLLIYRMSNLASGVPDRFSGSGSGTAFTLRISRVEAEDVGVYYCMQHLEYPFTFGSGTKLEIK
modifications: 12E6 heavy chain variable region; 12E6 light chain variable region
PC3 cells; PC3, 0.5 h at 37° C.
  Internalization PC3 (%) 0.5 h: 0.00%
PC3 cells; PC3, 1 h at 37° C.
  Internalization PC3 (%) 1 h: 0.00%
PC3 cells
  Internalization PC3 (%) 2 h: 7.99%
MDA-MB-231 cells [1]; MDA-MB-231, 0.5 h at 37° C.
  Internalization MDA-MB-231 (%) 0.5 h: 10.62%
MDA-MB-231 cells [1]; MDA-MB-231, 1 h at 37° C.
  Internalization MDA-MB-231 (%) 1 h: 7.08%
MDA-MB-231 cells [1]
  Internalization MDA-MB-231 (%) 2 h: 27.65%

B5: 1CP-068: anti-CDCP1 murine monoclonal antibody (hybridoma); VH SEQ ID NO: 270, VL SEQ ID NO: 320 (antibody, V domains shown)
VH: EVQLKESGAELVRPGALVKLSCKASGFNIKDYYMYWVKQRPEQGLEWIGWIDPENGNTIYDPKLQGKARITADTSSNTAYLQLSSLTSEDTAVYYCAGRLYAMEYWGQGTTVTVSS
VL: DVVMTQTPALMSASPGEKVTMTCSASSSVSYMYWYQQKPRSSPKPWIYLTSNLASGVPARFSGSGSGTSYSLTISSMEAEDAATYYCQQWSSDPFTFGGGTKLEIK
modifications: 1CP-068 heavy chain variable region; 1CP-068 light chain variable region
PC3 cells
  Internalization PC3 (%) 2 h: 66.24%
MDA-MB-231 cells [1]
  Internalization MDA-MB-231 (%) 2 h: 49.47%

B6: 1CP-065: anti-CDCP1 murine monoclonal antibody (hybridoma); VH SEQ ID NO: 269, VL SEQ ID NO: 319 (antibody, V domains shown)
VH: EVTLKESGAELVRPGALVKLSCKASGFNIKDYYMHWVKQRPEQGLEWIGWIDPENDNTIYDPKFQGKASITADTSSNTAYLQLSSLTSEDTAVYYCARFYGSYYYAMDYWGQGTTVTVSS
VL: DIVMTQSPKFMSTSVGDRVSITCKASQDVSTAVTWYQQKPGQSPKLLIYWASTRHTGVPDRFTGSGSGTDYTLTISSVQAEDLALYYCQQHYSTPYTFGGGTKLEIK
modifications: 1CP-065 heavy chain variable region; 1CP-065 light chain variable region
PC3 cells
  Internalization PC3 (%) 2 h: 68.71%
MDA-MB-231 cells [1]
  Internalization MDA-MB-231 (%) 2 h: 52.89%

B7: 1CP-064: anti-CDCP1 murine monoclonal antibody (hybridoma); VH SEQ ID NO: 267, VL SEQ ID NO: 317 (antibody, V domains shown)
VH: EVKLVESGPGILQPSQTLSLTCSFSGFSLSTSGMGVGWIRQPSGKGLEWLAHIWWDDVKRYNPALKSRLTISKDTSSSQVFLKIASVDTADTATYYCARMGGKVPWFAYWGQGTTVTVSS
VL: DVVMTQTPASLAVSLGQRATISCRASESVDSYGNSFMHWYQQKPGQPPKLLIYLASNLESGVPARFSGSGSRTDFTLTIDPVEADDAATYYCQQNNEDPWTFGGGTKLEIK
modifications: 1CP-064 heavy chain variable region; 1CP-064 light chain variable region
PC3 cells
  Internalization PC3 (%) 2 h: 93.05%
MDA-MB-231 cells [1]
  Internalization MDA-MB-231 (%) 2 h: 93.43%
